Values quoted from earlier work, collected in PMC7514057.
pKd: −log10 of the molar value.

Target: ArkA peptide (Ark1p) Lys(3) to Lys(-8) (Saccharomyces cerevisiae) (UniProt P53974)

pKd: 5.77
Substance: Abp1p SH3 (from UniProt P15891)
